# System: CC1(C)[C@H]2CC=C(C=O)[C@@H]1C2
# Experiment: purified protein
# Details: co-substrate F420H2; apparent value; fit with substrate inhibition
substance,measurement,value
MSMEG_2850 (Mycolicibacterium smegmatis MC2 155; Y124M),Km,260 ± 20 µM
same,kcat,0.65 ± 0.018 s⁻¹

# — article doi:10.1101/2023.02.21.529347v1
